Legend:
[1] = molecular target: Soluble expressed urokinase plasminogen activator receptor; assay: SPR
[2] = molecular target: gC1qR (Homo sapiens) (UniProt Q07021); conditions: cited from earlier work
[3] = molecular target: T1, cytokeratin 1 (Homo sapiens, UniProt P04264); assay: SPR
T1 chain: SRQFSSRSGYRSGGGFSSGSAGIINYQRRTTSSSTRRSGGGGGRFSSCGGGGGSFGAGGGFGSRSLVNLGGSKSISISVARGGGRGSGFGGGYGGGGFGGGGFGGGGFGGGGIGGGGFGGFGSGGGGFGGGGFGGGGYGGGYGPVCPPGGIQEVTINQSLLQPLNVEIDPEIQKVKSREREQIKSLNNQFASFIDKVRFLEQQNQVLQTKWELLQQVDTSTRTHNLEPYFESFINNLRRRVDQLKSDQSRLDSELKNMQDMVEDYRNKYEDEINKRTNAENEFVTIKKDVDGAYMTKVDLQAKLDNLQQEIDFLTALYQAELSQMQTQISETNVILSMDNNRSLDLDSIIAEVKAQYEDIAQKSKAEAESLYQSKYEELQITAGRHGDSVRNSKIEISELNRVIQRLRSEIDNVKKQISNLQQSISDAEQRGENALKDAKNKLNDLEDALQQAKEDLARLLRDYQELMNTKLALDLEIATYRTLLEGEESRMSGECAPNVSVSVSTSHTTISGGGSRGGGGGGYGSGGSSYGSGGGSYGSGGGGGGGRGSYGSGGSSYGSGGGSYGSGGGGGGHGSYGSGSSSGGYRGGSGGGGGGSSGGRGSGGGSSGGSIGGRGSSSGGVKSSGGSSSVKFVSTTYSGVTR

Sequence of gC1qR (Homo sapiens) (Q07021 74-282): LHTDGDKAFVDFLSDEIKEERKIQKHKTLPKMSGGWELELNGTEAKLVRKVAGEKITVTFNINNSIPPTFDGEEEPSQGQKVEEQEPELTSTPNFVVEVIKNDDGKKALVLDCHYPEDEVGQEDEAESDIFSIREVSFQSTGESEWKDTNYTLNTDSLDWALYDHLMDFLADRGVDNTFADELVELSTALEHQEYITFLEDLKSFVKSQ

Single-chain urokinase-type plasminogen activator (ligand)
Kd [1]: 0.1 to 1 nM

cleaved high-molecular-weight kininogen (HKa) (from UniProt P01042)
Kd [2]: 9 nM

B1: high-molecular-weight kininogen (HK/HKa) (protein)
chain: QESQSEEIDCNDKDLFKAVDAALKKYNSQNQSNNQFVLYRITEATKTVGSDTFYSFKYEIKEGDCPVQSGKTWQDCEYKDAAKAATGECTATVGKRSSTKFSVATQTCQITPAEGPVVTAQYDCLGCVHPISTQSPDLEPILRHGIQYFNNNTQHSSLFMLNEVKRAQRQVVAGLNFRITYSIVQTNCSKENFLFLTPDCKSLWNGDTGECTDNAYIDIQLRIASFSQNCDIYPGKDFVQPPTKICVGCPRDIPTNSPELEETLTHTITKLNAENNATFYFKIDNVKKARVQVVAGKKYFIDFVARETTCSKESNEELTESCETKKLGQSLDCNAEVYVVPWEKKIYPTVNCQPLGMISLMKRPPGFSPFRSSRIGEIKEETTVSPPHTSMAPAQDEERDSGKEQGHTRRHDWGHEKQRKHNLGHGHKHERDQGHGHQRGHGLGHGHEQQHGLGHGHKFKLDDDLEHQGGHVLDHGHKHKHGHGHGKHKNKGKKNGKHNGWKTEHLASSSEDSTTPSAQTQEKTEGPTPIPSLAKPGVTVTFSDFQDSDLIATMMPPISPAPIQSDDDWIPDIQIDPNGLSFNPISDFPDTTSPKCPGRPWKSVSEINPTTQMKESYYFDLTDGLS
modifications: Zn2+
Kd [3]: ~10 nM

Reference: PMC3149827 (2011)
